From US20220267444A1 (CTTQ AKESO SHANGHAI BIOMED TECH, published 2022) come the findings set out here.

For experiment [1], the target named is T1, Serum complement C1q (UniProt P02745 23-245; P02746 28-253; P02747 29-245). Kind of experiment: BLI (Fortebio Octet); antibody on FAB2G sensor, C1q 1.25-20 nM; 1:1 fit. As to the method:
(§1) 50 μg/mL antibody was immobilized on the FAB2G sensor at an immobilization height of about 2.0 nm. The sensor was equilibrated in a buffer for 60 s for blocking, and the binding of the immobilized antibody on the sensor to the antigen C1q at concentrations of 1.25-20 nM (serial two-fold dilution) was determined for 60 s. The antigen and antibody were dissociated in the buffer for 60 s. The sensor was refreshed 4 times in 10 mM glycine pH 1.7, each for 5 s. The shaking speed of the sample plate was 1000 rpm, the temperature was 30° C. and the frequency was 0.6 Hz. The data were analyzed by 1:1 model fitting to obtain affinity constants. The data acquisition software was Fortebio Data Acquisition 7.0, and the data analysis software was Fortebio Data Analysis 7.0.

Experiment [2] has as its target T2, Fc receptor FcγRIIIa_V158 (UniProt P08637 17-208). In words: BLI (Fortebio Octet), FcγRIIIa_V158 immobilised on HIS1K sensor, antibody in solution at 31.25-500 nM. As to the method: (§2) 5 μg/mL FcγRIIIa_V158 was immobilized on the HIS1K sensor for 120 s. The sensor was equilibrated in a buffer for 60 s, and the binding of the immobilized FcγRIIIa_V158 on the sensor to the antibodies at concentrations of 31.25-500 nM (serial two-fold dilution) was determined for 60 s. The antibody was dissociated in the buffer for 60 s. The sensor was refreshed 4 times in 10 mM glycine pH 1.5, each for 5 s. The temperature was 30° C. and the frequency was 0.3 Hz. The data were analyzed by 1:1 model fitting to obtain affinity constants.

The target in experiment [3] is T3, Fc receptor FcγRIIIa_F158 (UniProt P08637 17-208). In words: BLI (Fortebio Octet), FcγRIIIa_F158 immobilised on HIS1K sensor, antibody in solution at 31.25-500 nM. The procedure: (§3) 5 μg/mL FcγRIIIa_F158 was immobilized on the HIS1K sensor for 120 s. The sensor was equilibrated in a buffer for 60 s, and the binding of the immobilized FcγRIIIa_F158 on the sensor to the antibodies at concentrations of 31.25-500 nM (serial two-fold dilution) was determined for 60 s. The antibody was dissociated in the buffer for 60 s. The sensor was refreshed 4 times in 10 mM glycine pH 1.5, each for 5 s. The temperature was 30° C. and the frequency was 0.3 Hz. The data were analyzed by 1:1 model fitting to obtain affinity constants.
T3 sequence (P08637 17-208 limits assumed): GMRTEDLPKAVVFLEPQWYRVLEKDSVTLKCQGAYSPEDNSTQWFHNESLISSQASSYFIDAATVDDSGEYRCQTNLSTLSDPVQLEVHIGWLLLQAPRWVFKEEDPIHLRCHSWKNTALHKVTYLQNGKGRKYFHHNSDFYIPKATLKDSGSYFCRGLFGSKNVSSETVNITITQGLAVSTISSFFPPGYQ

Experiment [4] has as its target T1, Serum complement C1q. In words: BLI (Fortebio Octet), antibody immobilised on FAB2G sensor, C1q in solution at 1.25-20 nM. As to the method:
as §1

The next experiment deals with T4, Fc receptor FcγRIIa_R131 (UniProt P12318 34-218, limits assumed).
T4 sequence (looked up): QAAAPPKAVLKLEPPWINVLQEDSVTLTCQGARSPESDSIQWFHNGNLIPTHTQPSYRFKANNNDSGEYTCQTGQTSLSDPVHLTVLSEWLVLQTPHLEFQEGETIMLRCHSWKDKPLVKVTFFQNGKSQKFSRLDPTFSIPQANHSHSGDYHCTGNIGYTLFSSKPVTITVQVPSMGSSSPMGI
Kind of experiment: BLI (Fortebio Octet); FcγRIIa_R131 on NTA sensor, antibody 12.5-200 nM; 1:1 fit. The procedure: (§4) 5 μg/mL FcγRIIa_R131 was immobilized on the NTA sensor at an immobilization height of about 1.0 nm. The sensor was equilibrated in a buffer of 0.02% Tween-20, 0.02% casein and 0.1% BSA in PBS, pH 7.4 for 300 s of blocking, and the binding of the immobilized FcγRIIa_R131 on the sensor to the antibodies at concentrations of 12.5-200 nM (serial two-fold dilution) was determined for 60 s. The antibody was dissociated in the buffer for 60 s. The sensor was refreshed in 10 mM glycine pH 1.7 and […] nickel sulfate. The temperature was 30° C. and the frequency was 0.6 Hz. The data were analyzed by 1:1 model fitting to obtain affinity constants.

Experiment [5] addresses T5, Fc receptor FcγRIIa_H131 (UniProt P12318 34-218, limits assumed).
T5 sequence (looked up): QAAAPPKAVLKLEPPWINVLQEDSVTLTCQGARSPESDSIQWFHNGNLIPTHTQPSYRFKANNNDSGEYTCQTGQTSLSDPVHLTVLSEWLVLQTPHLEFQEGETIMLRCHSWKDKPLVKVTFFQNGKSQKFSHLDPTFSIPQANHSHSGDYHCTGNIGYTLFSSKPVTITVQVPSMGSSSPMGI
In words: BLI (Fortebio Octet), FcγRIIa_H131 immobilised on NTA sensor, antibody in solution at 12.5-200 nM. The procedure: as §4, with “FcγRIIa_H131” for “FcγRIIa_R131”

Experiment [6] has as its target T6, Fc receptor FcγRI (UniProt P12314 16-288).
T6 construct: also called CD64
In words: BLI (Fortebio Octet), FcγRI immobilised on HIS1K sensor, antibody in solution at 3.12-50 nM. As to the method: (§5) The Fc receptor FcγRI, also known as CD64, can bind to the Fc fragment of IgG antibodies and is involved in antibody-dependent cell-mediated cytotoxicity (ADCC). The binding capacity of a therapeutic monoclonal antibody to Fc receptors will influence the safety and efficacy of the antibody. […] A 1 μg/mL FcγRI solution (from Sinobio) was added to the HIS1K sensor to immobilize the FcγRI on the sensor surface for 50 s. The association and dissociation constants of the antibodies to FcγRI were both determined in the buffer with the antibody concentrations being 3.12-50 nM (serial two-fold dilution). The sensor with immobilized antigen was equilibrated in the buffer for 60 s, and then the binding of the immobilized FcγRI on the sensor to the antibodies was determined for 120 s; the dissociation of FcγRI from the antibodies was determined in 120 s. The temperature was 30° C. and the frequency was 0.3 Hz. The data were fitted and analyzed with a 1:1 model to obtain the affinity constants to FcγRI for the antibodies.

For experiment [7], the target named is T7, Fc receptor FcγRIIb (human, UniProt P31994 43-217).
T7 construct: also called CD32b; hFcγRIIb-his; not shown: his tag named in 'hFcγRIIb-his'
T7 sequence (looked up): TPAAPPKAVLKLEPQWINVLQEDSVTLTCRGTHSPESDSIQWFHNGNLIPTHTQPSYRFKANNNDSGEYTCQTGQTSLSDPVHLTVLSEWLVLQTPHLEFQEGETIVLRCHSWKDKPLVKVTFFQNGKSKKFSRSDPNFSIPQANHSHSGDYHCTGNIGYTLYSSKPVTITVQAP
Kind of experiment: BLI (Fortebio Octet), hFcγRIIb-his immobilised on NTA sensor, antibody in solution at 12.5-200 nM. As to the method: as §4, with “hFcγRIIb-his” for “FcγRIIa_R131”

In experiment [8] the target is T5, Fc receptor FcγRIIa_H131. Kind of experiment: BLI (Fortebio Octet); FcγRIIa_H131 on NTA sensor, antibody 12.5-200 nM; 1:1 fit. As to the method:
as §4, with “FcγRIIa_H131” for “FcγRIIa_R131”

The target in experiment [9] is T6, Fc receptor FcγRI. Kind of experiment: BLI (Fortebio Octet); FcγRI on HIS1K sensor, antibody 3.12-50 nM; 1:1 fit. The procedure:
as §5

Experiment [10] has as its target T7, Fc receptor FcγRIIb. Kind of experiment: BLI (Fortebio Octet); hFcγRIIb-his on NTA sensor, antibody 12.5-200 nM; 1:1 fit. As to the method: as §4, with “hFcγRIIb-his” for “FcγRIIa_R131”
Experiment [11] addresses T2, Fc receptor FcγRIIIa_V158. Kind of experiment: BLI (Fortebio Octet); FcγRIIIa_V158 on HIS1K sensor, antibody 31.25-500 nM; 1:1 fit. As to the method: as §2
The target of experiment [12] is T3, Fc receptor FcγRIIIa_F158. Kind of experiment: BLI (Fortebio Octet); FcγRIIIa_F158 on HIS1K sensor, antibody 31.25-500 nM; 1:1 fit. As to the method: as §3

T2 sequence (P08637 17-208 F176V limits assumed): as the sequence (P08637 17-208 limits assumed) above, with F160V counted along it
T6 sequence (P12314 16-288 limits assumed): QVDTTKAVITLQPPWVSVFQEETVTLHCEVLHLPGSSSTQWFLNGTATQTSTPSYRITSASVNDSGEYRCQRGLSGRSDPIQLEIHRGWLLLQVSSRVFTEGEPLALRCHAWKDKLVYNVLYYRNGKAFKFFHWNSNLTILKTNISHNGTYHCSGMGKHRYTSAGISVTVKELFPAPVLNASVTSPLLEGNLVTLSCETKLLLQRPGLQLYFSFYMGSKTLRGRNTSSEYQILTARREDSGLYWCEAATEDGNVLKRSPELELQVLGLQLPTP
T1 sequence (P02745 23-245 limits assumed, chain 1 of 3): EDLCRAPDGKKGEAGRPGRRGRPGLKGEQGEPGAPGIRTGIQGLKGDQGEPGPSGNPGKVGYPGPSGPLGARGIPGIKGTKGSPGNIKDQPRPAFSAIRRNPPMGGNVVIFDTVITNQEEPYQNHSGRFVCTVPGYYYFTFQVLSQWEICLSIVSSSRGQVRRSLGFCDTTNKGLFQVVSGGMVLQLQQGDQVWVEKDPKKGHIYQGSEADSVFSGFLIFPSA
T1 sequence (P02746 28-253 limits assumed, chain 2 of 3): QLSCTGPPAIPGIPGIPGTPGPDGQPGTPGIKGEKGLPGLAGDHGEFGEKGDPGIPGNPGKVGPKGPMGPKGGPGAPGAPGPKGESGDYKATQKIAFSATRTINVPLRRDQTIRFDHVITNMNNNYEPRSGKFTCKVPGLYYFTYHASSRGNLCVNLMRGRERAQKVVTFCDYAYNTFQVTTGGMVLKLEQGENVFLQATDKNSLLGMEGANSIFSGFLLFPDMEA
T1 sequence (P02747 29-245 limits assumed, chain 3 of 3): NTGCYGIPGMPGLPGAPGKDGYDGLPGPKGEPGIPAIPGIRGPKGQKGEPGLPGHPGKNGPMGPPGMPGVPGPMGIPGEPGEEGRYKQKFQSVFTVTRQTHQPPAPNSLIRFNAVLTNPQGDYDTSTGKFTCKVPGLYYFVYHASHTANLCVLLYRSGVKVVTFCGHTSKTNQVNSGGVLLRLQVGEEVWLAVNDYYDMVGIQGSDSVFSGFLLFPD

B1: 5C10H2L2-IgG1mt (antibody)
chain 1: not shown
chain 2: EIVLTQSPDTLSVTPKEKVTLTCRASQSIGTNIHWFQQKPGQSPKLLIKYASESISGVPSRFSGSGSGTDFTLTINSVEAEDAATYYCQQSNSWPYTFGQGTKLEIKRTVAAPSVFIFPPSDEQLKSGTASVVCLLNNFYPREAKVQWKVDNALQSGNSQESVTEQDSKDSTYSLSSTLTLSKADYEKHKVYACEVTHQGLSSPVTKSFNRGEC
With B1, in the experiment with Serum complement C1q [1], the Kd is 4.43 nM, the koff worked out at 0.0105 s⁻¹ and the on-rate constant (kon) worked out at 2.38e+06 M⁻¹ s⁻¹.

B2: 14C12H1L1(hG1TM) (antibody, human IgG1, kappa)
heavy: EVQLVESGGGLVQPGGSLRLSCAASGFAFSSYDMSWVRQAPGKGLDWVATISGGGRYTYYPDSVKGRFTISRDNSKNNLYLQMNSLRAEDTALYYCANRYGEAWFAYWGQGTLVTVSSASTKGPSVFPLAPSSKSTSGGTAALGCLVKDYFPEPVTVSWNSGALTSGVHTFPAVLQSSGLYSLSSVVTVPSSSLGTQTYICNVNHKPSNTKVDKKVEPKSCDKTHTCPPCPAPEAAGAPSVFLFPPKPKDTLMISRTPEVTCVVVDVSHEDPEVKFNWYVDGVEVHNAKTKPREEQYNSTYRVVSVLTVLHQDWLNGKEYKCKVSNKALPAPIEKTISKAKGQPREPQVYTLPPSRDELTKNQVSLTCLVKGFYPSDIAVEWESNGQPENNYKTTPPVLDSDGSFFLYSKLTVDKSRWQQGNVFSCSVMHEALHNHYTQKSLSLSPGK
light: DIQMTQSPSSMSASVGDRVTFTCRASQDINTYLSWFQQKPGKSPKTLIYRANRLVSGVPSRFSGSGSGQDYTLTISSLQPEDMATYYCLQYDEFPLTFGAGTKLELKRTVAAPSVFIFPPSDEQLKSGTASVVCLLNNFYPREAKVQWKVDNALQSGNSQESVTEQDSKDSTYSLSSTLTLSKADYEKHKVYACEVTHQGLSSPVTKSFNRGEC
notes: Humanized anti-PD-1 IgG1 mutant of 14C12H1L1(hG1WT) with L234A, L235A and G237A (EU numbering) in the heavy chain
B2: the binding result is “no binding (tested: 500 nM)” in experiment [2]; “no binding (tested: 500 nM)” in experiment [3]; “no binding (tested: 20 nM)” with Serum complement C1q [4]; “no binding (tested: 200 nM)” with Fc receptor FcγRIIa_H131 [5]; “no binding (tested: 50 nM)” with Fc receptor FcγRI [6]; “no binding (tested: 200 nM)” in the experiment with Fc receptor FcγRIIb [7]. The molecule further came in with an equilibrium dissociation constant (Kd) in the experiment with Fc receptor FcγRIIa_R131 of 232 nM. The same molecule showed a koff in the experiment with Fc receptor FcγRIIa_R131 of 0.0938 s⁻¹. This molecule returned a kon with Fc receptor FcγRIIa_R131 of 404000 M⁻¹ s⁻¹.

B3: 14C12H1L1(hG4) (antibody, human IgG4 S228P, kappa)
heavy: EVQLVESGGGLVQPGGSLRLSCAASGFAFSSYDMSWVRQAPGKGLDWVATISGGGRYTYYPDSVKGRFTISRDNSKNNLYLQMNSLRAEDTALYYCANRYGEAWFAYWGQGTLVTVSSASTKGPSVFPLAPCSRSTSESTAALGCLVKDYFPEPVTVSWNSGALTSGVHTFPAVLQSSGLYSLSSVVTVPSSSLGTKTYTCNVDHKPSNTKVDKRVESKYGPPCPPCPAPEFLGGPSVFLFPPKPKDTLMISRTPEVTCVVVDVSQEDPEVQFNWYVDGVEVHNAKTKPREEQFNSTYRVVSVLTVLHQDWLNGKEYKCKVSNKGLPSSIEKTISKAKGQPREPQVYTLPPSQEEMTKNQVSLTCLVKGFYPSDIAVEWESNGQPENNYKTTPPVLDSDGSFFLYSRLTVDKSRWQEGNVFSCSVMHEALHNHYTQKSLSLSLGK
light: DIQMTQSPSSMSASVGDRVTFTCRASQDINTYLSWFQQKPGKSPKTLIYRANRLVSGVPSRFSGSGSGQDYTLTISSLQPEDMATYYCLQYDEFPLTFGAGTKLELKRTVAAPSVFIFPPSDEQLKSGTASVVCLLNNFYPREAKVQWKVDNALQSGNSQESVTEQDSKDSTYSLSSTLTLSKADYEKHKVYACEVTHQGLSSPVTKSFNRGEC
notes: Humanized anti-PD-1 antibody with the variable regions of 14C12H1L1(hG1WT), Ig gamma-4 chain C region (P01861.1) and Ig kappa chain C region (P01834)
With B3, the Kd worked out at 50.7 nM in the experiment with Fc receptor FcγRIIa_H131 [8], 5.8 nM with Fc receptor FcγRI [9], 56.2 nM with Fc receptor FcγRIIb [10] and 31.3 nM with Fc receptor FcγRIIa_R131. Also, the koff was found to be 0.013 s⁻¹ in the experiment with Fc receptor FcγRIIa_H131 [8], 0.00369 s⁻¹ in the experiment with Fc receptor FcγRI [9], 0.0162 s⁻¹ in the experiment with Fc receptor FcγRIIb [10] and 0.011 s⁻¹ with Fc receptor FcγRIIa_R131. Further, the kon with Fc receptor FcγRIIa_H131 [8] was found to be 257000 M⁻¹ s⁻¹; with Fc receptor FcγRI [9], 637000 M⁻¹ s⁻¹; in the experiment with Fc receptor FcγRIIb [10], 288000 M⁻¹ s⁻¹; with Fc receptor FcγRIIa_R131, 350000 M⁻¹ s⁻¹. For the same molecule, the binding result in experiment [3] is given as “no binding (tested: 500 nM)”; with Serum complement C1q [4] it was “no binding (tested: 20 nM)”.

B4: 14C12H1L1(hG1WT) (antibody, human IgG1, kappa)
heavy: not shown
light: DIQMTQSPSSMSASVGDRVTFTCRASQDINTYLSWFQQKPGKSPKTLIYRANRLVSGVPSRFSGSGSGQDYTLTISSLQPEDMATYYCLQYDEFPLTFGAGTKLELKRTVAAPSVFIFPPSDEQLKSGTASVVCLLNNFYPREAKVQWKVDNALQSGNSQESVTEQDSKDSTYSLSSTLTLSKADYEKHKVYACEVTHQGLSSPVTKSFNRGEC
notes: Humanized anti-PD-1 antibody, wild-type human IgG1 constant region
Consider B4, for which the equilibrium dissociation constant (Kd) in the experiment with Fc receptor FcγRIIa_H131 [8] amounted to 57.4 nM; in experiment [11], 65.4 nM; in the experiment with Fc receptor FcγRI [9] it was 2.52 nM; in the experiment with Fc receptor FcγRIIb [10], 61.3 nM; in the experiment with Fc receptor FcγRIIa_R131, 34.6 nM; in experiment [12], 102 nM. Further, binding with Serum complement C1q [1] was characterised by a dissociation constant (Kd) of 1.35 nM. Also, the koff in the experiment with Fc receptor FcγRIIa_H131 [8] is 0.0267 s⁻¹; in experiment [11], 0.0171 s⁻¹; with Fc receptor FcγRI [9], 0.00175 s⁻¹; in the experiment with Fc receptor FcγRIIb [10], 0.0195 s⁻¹; with Fc receptor FcγRIIa_R131 it was 0.0228 s⁻¹; in experiment [12], 0.0256 s⁻¹. This molecule also had a koff in the experiment with Serum complement C1q [1] of 0.00654 s⁻¹. Besides, the kon in the experiment with Fc receptor FcγRIIa_H131 [8] is 465000 M⁻¹ s⁻¹; in [11], 261000 M⁻¹ s⁻¹; with Fc receptor FcγRI [9] it was 694000 M⁻¹ s⁻¹; with Fc receptor FcγRIIb [10], 318000 M⁻¹ s⁻¹; with Fc receptor FcγRIIa_R131, 660000 M⁻¹ s⁻¹; in [12], 252000 M⁻¹ s⁻¹. Also, in the experiment with Serum complement C1q [1], the kon amounted to 4.83e+06 M⁻¹ s⁻¹.
